Legend:
IcaR [1] = molecular target: T1, IcaR (Staphylococcus aureus, UniProt Q9RQQ0 SEQ:1-186); experiment: EMSA; on ice; competed by 100x specific competitor; conditions: tags: N-terminal His6 (pCRT7-NT); chain copies: 2; label: 32P
T1 sequence: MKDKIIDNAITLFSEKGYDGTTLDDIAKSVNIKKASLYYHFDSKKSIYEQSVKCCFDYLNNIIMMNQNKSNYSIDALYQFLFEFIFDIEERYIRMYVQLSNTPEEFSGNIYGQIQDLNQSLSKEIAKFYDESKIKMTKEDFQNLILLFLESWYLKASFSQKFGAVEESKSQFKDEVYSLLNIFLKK

TcaR [2] = molecular target: T2, TcaR (Staphylococcus aureus, UniProt Q9F4G3 Q9F4G3:1-151); experiment: footprint; data not shown; multiple sites protected, specific and high affinity; conditions: chain copies: 2; label: 32P
T2 sequence (Q9F4G3 whole entry, one chain of several): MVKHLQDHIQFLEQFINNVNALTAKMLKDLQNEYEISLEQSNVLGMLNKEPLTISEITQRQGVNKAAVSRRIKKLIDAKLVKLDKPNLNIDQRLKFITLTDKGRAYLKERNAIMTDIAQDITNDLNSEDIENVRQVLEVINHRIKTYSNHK

IcaR [3] = molecular target: T1, IcaR; experiment: EMSA; no detectable difference from WT probe; conditions: tags: N-terminal His6 (pCRT7-NT); chain copies: 2; label: 32P
TcaR [4] = molecular target: T2, TcaR; experiment: footprint; data not shown; protection much the same as WT; conditions: chain copies: 2; label: 32P
IcaR [5] = molecular target: T1, IcaR; experiment: EMSA; data not shown; conditions: tags: N-terminal His6 (pCRT7-NT); chain copies: 2; label: 32P
IcaR [6] = molecular target: T1, IcaR; experiment: EMSA; recombinant IcaR failed to bind either short probe; conditions: tags: N-terminal His6 (pCRT7-NT); chain copies: 2; label: 32P

B1: 198-bp WT ica promoter probe (dsDNA)
DNA 1: ATTGCGTTATCAATAATCTTATCCTTCAATTTTTATAACCCCCTACTGAAAATTAATCACACTATGTTACAGGAAAATTAAGTTGCAATTACAAATATTTCCGTTTAATTATAACAACAATCTATTGCAAATTAAAATACTATCAATTACCATATGGCTTACAACCTAACTAACGAAAGGTAGGTAAAGAAATTGCAA
DNA 2: TTGCAATTTCTTTACCTACCTTTCGTTAGTTAGGTTGTAAGCCATATGGTAATTGATAGTATTTTAATTTGCAATAGATTGTTGTTATAATTAAACGGAAATATTTGTAATTGCAACTTAATTTTCCTGTAACATAGTGTGATTAATTTTCAGTAGGGGGTTATAAAAATTGAAGGATAAGATTATTGATAACGCAAT
binding result (IcaR [1]): binds | binding result (TcaR [2]): binds

B2: 193-bp MUC ica promoter probe (dsDNA)
DNA 1: ATTGCGTTATCAATAATCTTATCCTTCAATTTTTATAACCCCCTACTGAAAATTAATCACACTATGTTACAGGAAAATTAAGTTGCAATTACAAACCGTTTAATTATAACAACAATCTATTGCAAATTAAAATACTATCAATTACCATATGGCTTACAACCTAACTAACGAAAGGTAGGTAAAGAAATTGCAA
DNA 2: TTGCAATTTCTTTACCTACCTTTCGTTAGTTAGGTTGTAAGCCATATGGTAATTGATAGTATTTTAATTTGCAATAGATTGTTGTTATAATTAAACGGTTTGTAATTGCAACTTAATTTTCCTGTAACATAGTGTGATTAATTTTCAGTAGGGGGTTATAAAAATTGAAGGATAAGATTATTGATAACGCAAT
binding result (IcaR [3]): binds | binding result (TcaR [4]): binds

B3: WTshort 53-bp (dsDNA)
DNA 1: CTATGTTACAGGAAAATTAAGTTGCAATTACAAATATTTCCGTTTAATTATAA
DNA 2: TTATAATTAAACGGAAATATTTGTAATTGCAACTTAATTTTCCTGTAACATAG
binding result (IcaR [5]): no binding

B4: DEL/MUC 48-bp (dsDNA)
DNA 1: CTATGTTACAGGAAAATTAAGTTGCAATTACAAACCGTTTAATTATAA
DNA 2: TTATAATTAAACGGTTTGTAATTGCAACTTAATTTTCCTGTAACATAG
binding result (IcaR [6]): no binding

Reference: US20040175731, “Methods and products for treating staphylococcal infections” (The Brigham and Women's Hospital, Inc., published 2004)
